Measured values from paper PMC2408616, “Modular Organization and Combinatorial Energetics of Proline–Tyrosine Nuclear Localization Signals” (PLoS Biology, 2008).

T1: Kap104p (yeast (S. cerevisiae), UniProt P38217 1-918)
T1 construct: Kap104p, yeast homolog of Kapβ2; gene a gift from J. Aitchison, subcloned into pGEX-Tev; also called yeast Karyopherin β2 homolog; source: E. coli Rosetta(DE3)pLysS, purified (glutathione sepharose, TEV cleavage, anion exchange, gel filtration)
T1 sequence (looked up): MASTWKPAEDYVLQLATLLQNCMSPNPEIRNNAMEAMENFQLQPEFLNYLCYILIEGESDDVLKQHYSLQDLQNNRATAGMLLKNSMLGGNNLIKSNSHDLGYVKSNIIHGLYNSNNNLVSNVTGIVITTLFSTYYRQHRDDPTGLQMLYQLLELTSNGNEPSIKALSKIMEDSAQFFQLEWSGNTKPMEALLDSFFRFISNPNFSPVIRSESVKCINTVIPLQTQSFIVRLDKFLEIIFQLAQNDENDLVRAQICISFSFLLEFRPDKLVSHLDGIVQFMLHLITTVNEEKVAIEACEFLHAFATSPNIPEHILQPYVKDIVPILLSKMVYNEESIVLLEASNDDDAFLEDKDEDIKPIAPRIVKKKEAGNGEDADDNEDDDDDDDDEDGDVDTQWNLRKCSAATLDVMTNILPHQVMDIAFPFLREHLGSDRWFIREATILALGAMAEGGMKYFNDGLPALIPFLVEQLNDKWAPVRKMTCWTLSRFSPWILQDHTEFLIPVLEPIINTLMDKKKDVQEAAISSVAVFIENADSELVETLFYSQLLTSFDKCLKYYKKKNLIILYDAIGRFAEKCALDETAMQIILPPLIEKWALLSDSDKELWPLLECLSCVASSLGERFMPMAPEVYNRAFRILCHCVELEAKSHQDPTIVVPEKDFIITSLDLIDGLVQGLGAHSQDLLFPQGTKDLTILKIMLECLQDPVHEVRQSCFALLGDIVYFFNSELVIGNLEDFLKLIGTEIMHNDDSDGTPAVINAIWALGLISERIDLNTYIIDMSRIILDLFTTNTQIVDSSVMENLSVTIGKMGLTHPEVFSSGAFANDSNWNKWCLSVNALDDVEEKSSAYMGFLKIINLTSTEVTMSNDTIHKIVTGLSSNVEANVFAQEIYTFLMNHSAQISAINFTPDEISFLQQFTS

T2: Kap104p, P38217
T2 chain: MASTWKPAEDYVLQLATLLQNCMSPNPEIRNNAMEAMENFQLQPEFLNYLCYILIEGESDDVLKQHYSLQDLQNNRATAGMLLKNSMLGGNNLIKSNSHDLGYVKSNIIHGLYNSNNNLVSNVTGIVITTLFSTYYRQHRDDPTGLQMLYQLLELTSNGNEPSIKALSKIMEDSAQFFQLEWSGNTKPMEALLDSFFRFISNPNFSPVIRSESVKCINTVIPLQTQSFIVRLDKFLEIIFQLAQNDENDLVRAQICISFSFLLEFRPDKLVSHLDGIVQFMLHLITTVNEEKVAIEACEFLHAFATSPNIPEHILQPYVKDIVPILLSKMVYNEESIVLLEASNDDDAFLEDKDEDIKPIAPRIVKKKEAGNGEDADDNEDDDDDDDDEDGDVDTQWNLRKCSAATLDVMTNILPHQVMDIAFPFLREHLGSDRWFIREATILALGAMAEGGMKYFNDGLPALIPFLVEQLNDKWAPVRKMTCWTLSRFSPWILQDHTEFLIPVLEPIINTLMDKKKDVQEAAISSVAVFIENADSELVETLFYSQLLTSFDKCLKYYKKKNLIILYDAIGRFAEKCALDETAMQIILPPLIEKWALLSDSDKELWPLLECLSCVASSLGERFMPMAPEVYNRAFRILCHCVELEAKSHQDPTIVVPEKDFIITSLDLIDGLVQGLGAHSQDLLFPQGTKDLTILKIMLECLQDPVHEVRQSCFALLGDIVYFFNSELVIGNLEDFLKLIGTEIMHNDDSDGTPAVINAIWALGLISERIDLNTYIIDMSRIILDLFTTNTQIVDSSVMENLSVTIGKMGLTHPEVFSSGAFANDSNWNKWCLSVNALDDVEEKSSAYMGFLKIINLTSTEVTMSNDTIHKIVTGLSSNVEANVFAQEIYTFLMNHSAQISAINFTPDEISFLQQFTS

T3: Kap104p (yeast (S. cerevisiae), UniProt P38217 1-918)
T3 chain: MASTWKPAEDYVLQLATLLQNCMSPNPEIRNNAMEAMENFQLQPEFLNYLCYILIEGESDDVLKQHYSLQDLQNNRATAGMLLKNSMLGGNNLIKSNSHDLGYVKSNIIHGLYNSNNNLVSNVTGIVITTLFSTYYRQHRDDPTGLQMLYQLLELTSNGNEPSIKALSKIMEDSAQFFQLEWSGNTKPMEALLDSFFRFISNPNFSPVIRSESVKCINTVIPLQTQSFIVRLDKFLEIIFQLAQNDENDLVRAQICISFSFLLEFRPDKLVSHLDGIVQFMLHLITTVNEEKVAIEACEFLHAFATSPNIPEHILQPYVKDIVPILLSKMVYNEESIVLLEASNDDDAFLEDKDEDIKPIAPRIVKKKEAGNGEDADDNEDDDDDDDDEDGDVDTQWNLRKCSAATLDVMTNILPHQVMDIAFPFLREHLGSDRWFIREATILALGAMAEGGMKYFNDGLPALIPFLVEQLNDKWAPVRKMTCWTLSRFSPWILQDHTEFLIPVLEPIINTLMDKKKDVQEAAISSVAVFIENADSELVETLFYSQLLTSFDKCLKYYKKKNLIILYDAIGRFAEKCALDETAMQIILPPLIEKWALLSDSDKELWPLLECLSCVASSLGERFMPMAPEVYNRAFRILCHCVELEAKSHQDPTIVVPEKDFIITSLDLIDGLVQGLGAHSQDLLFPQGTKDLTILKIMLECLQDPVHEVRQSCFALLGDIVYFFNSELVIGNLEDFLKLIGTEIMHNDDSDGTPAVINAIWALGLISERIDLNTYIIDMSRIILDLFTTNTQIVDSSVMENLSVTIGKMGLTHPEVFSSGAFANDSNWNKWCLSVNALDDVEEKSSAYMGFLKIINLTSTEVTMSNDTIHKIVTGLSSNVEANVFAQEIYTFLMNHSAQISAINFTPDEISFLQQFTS

B1: MBP–Hrp1p NLS 524RR525/AA (domain or fragment, S. cerevisiae, UniProt Q99383 494-534, looked up)
chain: RDRNDRDRDYNHRSGGNHRRNGRGGRGGYNAANNGYHPYNR
notes: Hrp1p NLS, residues 494-534; source: E. coli BL21(DE3), purified (amylose resin, cation exchange)
B2: MBP–Hrp1p NLS R512,R513,R516,R519/AAAA (domain or fragment, S. cerevisiae, UniProt Q99383 494-534, looked up)
chain: RDRNDRDRDYNHRSGGNHAANGAGGAGGYNRRNNGYHPYNR
notes: Hrp1p NLS, residues 494-534; also called quadruple mutant (arginines to alanines); source: E. coli BL21(DE3), purified (amylose resin, cation exchange)
B3: MBP–Hrp1p NLS Y529L (domain or fragment, S. cerevisiae, UniProt Q99383 494-534, looked up)
chain: RDRNDRDRDYNHRSGGNHRRNGRGGRGGYNRRNNGLHPYNR
notes: as for B1
B4: MBP–Hrp1p NLS R512, R513, R516, R519/KKKK (domain or fragment, S. cerevisiae, UniProt Q99383 494-534, looked up)
chain: RDRNDRDRDYNHRSGGNHKKNGKGGKGGYNRRNNGYHPYNR
notes: Hrp1p NLS, residues 494-534; also called quadruple mutant (arginines to lysines); source: E. coli BL21(DE3), purified (amylose resin, cation exchange)
B5: MBP–Hrp1p NLS Y529A (domain or fragment, S. cerevisiae, UniProt Q99383 494-534, looked up)
chain: RDRNDRDRDYNHRSGGNHRRNGRGGRGGYNRRNNGAHPYNR
notes: as for B1

What was measured:
Kap104p [1] = molecular target: T1, Kap104p; test: ITC; 90–350 μM MBP-NLS titrated into 9–35 μM Kap104p in the cell; 20 °C; 20 mM Tris pH 7.5, 100 mM NaCl, 2 mM β-mercaptoethanol, 10% glycerol; 35 injections of 8 μl; single-site model; details: both partners purified
Kap104p, P38217 = molecular target: T2, Kap104p, P38217; test: ITC; details: chain shown with the change;; parent: 32 ± 16
Kap104p [2] = molecular target: T3, Kap104p; test: ITC

Row | Binder | Kd (Kap104p [2]) [nM] | other results
1 | B1 |  | KD,mutant/KD,wild type (Kap104p [1]): 1.7; Kd (Kap104p, P38217): 62 nM
2 | RDRNDRDRDYNHRSGGNHARNGRGGRGGYNRRNNGAHPYNR [MBP–Hrp1p NLS R512A, Y529A] | 60 | 
3 | RDRNDRDRDYNHRSGGNHRRNGRGGRGGYNRANNGYHPYNR [MBP–Hrp1p NLS R525A] | 13 | 
4 | RDRNDRDRDYNHRSGGNHRRNGRGGRGGYNARNNGYHPYNR [MBP–Hrp1p NLS R524A] | 37 | 
5 | RDRNDRDRDYNHRSGGNHARNGRGGRGGYNAANNGYHPYNR [MBP–Hrp1p NLS R512A, 524RR525/AA] | 44 | 
6 | B2 | 194 | fold decrease in binding against wild type (Kap104p [1]): 5 fold
7 | B3 | 37 | binding result (Kap104p [1]): binds
8 | B4 | 36 | binding result (Kap104p [1]): binds
9 | B5 | 143 | KD,mutant/KD,wild type (Kap104p [1]): 4
